The source of these data is patent publication US20200392227A1 (LYVGEN BIOPHARMA, published 2020).

The term Kd denotes the concentration at which binding is half-saturated. As a reminder, the koff is a measure of how fast the partners let go of each other. The low end stands for a long-lived complex, the high end for a short-lived complex. In general, kon refers to the rate constant with which the complex forms. High values mean fast association, low ones slow association.

Experiment [1] has as its target T1, human FcγRIIA(R131) expressed on CHO cells (human, UniProt P12318 34-317).
T1 construct: whole, on cells
T1 sequence (looked up): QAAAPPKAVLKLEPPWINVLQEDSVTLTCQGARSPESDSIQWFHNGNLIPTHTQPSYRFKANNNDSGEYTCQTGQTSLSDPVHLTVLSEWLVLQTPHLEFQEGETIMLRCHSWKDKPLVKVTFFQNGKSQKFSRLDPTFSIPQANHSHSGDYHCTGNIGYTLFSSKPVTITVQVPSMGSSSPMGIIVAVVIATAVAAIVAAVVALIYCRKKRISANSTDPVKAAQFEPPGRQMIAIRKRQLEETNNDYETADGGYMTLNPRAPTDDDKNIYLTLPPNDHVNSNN
The experiment can be described thus: FACS, CHO cells expressing FcγRIIA(R131). The procedure: (§1) For FACS analysis of the IgG mutants' binding to different FcγRs, FcγR overexpressing CHO cells were harvested using trypsin-EDTA and were suspended in cold staining buffer (3% BSA in PBS). Test IgG mutants, which were diluted in staining buffer, were added into the cells. The mixture was incubated 4° C. for 2 hours, and then washed twice with cold staining buffer and re-suspended in PE-labeled anti-human IgG followed by incubation at 4° C. for 2 hours. The mixture was washed twice with staining buffer and re-suspended in 2% PFA in PBS for FACS.

In experiment [2] the target is T2, human FcγRIIC expressed on CHO cells (human, UniProt P31995 43-323).
T2 construct: whole, on cells
T2 sequence (looked up): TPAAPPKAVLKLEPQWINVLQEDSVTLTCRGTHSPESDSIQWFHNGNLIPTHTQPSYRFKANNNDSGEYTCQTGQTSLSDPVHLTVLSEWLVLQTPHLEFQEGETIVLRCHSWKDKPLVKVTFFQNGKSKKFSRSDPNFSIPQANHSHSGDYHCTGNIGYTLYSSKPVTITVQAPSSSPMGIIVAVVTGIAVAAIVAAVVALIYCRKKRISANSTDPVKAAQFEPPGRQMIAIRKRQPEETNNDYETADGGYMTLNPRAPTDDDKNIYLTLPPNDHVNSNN
Put plainly: FACS, CHO cells expressing FcγRIIC. (In general: A flow cytometer gives signals particle by particle.)

Experiment [3] addresses T3, human FcγRIIA(H131) expressed on CHO cells (human, UniProt P12318 34-317).
T3 construct: whole, on cells
T3 sequence (looked up): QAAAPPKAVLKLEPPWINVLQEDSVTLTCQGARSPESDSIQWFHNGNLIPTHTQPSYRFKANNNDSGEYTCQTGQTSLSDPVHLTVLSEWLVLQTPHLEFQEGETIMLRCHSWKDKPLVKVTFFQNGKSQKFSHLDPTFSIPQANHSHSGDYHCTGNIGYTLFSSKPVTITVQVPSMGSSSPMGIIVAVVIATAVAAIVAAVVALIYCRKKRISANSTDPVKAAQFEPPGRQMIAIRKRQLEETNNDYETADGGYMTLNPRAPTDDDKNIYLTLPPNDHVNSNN
The experiment can be described thus: FACS, CHO cells expressing FcγRIIA(H131). The procedure:
as §1

The target of experiment [4] is T4, human FcRIIA protein (MednaBio, E1033) (human, UniProt P12318 34-218, limits assumed).
T4 construct: Bought; also called FcγRIIA
T4 sequence (looked up): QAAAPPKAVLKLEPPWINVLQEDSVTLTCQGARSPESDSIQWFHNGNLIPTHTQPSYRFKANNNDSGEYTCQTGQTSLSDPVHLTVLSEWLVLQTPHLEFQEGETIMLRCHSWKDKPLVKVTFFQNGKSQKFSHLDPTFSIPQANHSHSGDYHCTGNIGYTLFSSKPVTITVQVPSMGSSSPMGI
The experiment can be described thus: BLI. An outline of the steps:
(§2)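 Binding was measured by biolayer interferometry on an Octet Red96 System. Commercial human Fc receptor proteins were loaded at 20 μg/mL onto anti-penta-HIS biosensors, which were then dipped into an 8-point 1:3 dilution series of test IgG starting at 300 nM in PBS with 0.1% BSA and 0.02% Tween-20, at pH 7.2 for Fcγ receptors and pH 6 for FcRn. Kd, kon and koff were obtained by global fitting, with data fitted to a 1:1 binding model.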
A general note: Biolayer interferometry detects binding as a change in optical thickness at a sensor tip.

Experiment [5] addresses T5, human FcRIIIA-F158 protein (MednaBio, E1036) (human, UniProt P08637 17-208).
T5 construct: Bought; also called FcγRIIIA(F)
The experiment can be described thus: BLI. The essentials:
as §2

For experiment [6], the target named is T6, human FcRI protein (MednaBio, E1031) (human, UniProt P12314 16-288, limits assumed).
T6 construct: Bought; loaded on anti-penta-HIS biosensors; also called FcγRI
T6 sequence (P12314 16-288 limits assumed): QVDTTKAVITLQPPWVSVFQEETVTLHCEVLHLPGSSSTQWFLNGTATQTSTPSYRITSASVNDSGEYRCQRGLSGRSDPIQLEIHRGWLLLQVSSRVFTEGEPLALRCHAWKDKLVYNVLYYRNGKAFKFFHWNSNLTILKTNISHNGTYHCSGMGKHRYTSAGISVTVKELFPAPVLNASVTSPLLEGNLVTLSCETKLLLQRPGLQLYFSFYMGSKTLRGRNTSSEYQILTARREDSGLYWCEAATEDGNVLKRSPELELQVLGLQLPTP
Put plainly: BLI. An outline of the steps: as §2

Experiment [7] concerns the target T7, human FcRn protein (MednaBio, E1032) (human, UniProt P55899 24-297; P61769 21-119).
T7 construct: Bought; assays at pH 6
The experiment can be described thus: BLI. The essentials: as §2

Experiment [8] has as its target T8, human FcRIIIA-V158 protein (MednaBio, E1035) (human, UniProt P08637 17-208).
T8 construct: Bought; also called FcγRIIIA(V); FcgRIIIA(V)
Put plainly: BLI. An outline of the steps:
as §2

Experiment [9] has as its target T9, human FcRIIB/C protein (MednaBio, E1034) (human, UniProt P31994 43-217, limits assumed).
T9 construct: Bought as FcRIIB/C; also called FcγRIIB; CD32B
T9 sequence (looked up): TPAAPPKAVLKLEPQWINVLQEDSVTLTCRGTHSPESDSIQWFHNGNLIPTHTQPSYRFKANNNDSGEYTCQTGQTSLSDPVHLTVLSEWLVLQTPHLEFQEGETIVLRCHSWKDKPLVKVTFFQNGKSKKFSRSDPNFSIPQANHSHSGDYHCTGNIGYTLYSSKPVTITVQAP
The experiment can be described thus: BLI. An outline of the steps: as §2

The target of experiment [10] is T10, human FcRIIIB protein (MednaBio, E1037) (human, UniProt O75015 17-200).
T10 construct: Bought; also called FcγRIIIB; FcgRIIIB
T10 sequence (O75015 17-200 limits assumed): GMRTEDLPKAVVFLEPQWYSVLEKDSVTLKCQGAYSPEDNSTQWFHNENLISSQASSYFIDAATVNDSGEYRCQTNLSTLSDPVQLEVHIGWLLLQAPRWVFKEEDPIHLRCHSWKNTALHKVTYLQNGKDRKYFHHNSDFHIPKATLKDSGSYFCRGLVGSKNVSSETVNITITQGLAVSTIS
The experiment can be described thus: BLI. The essentials: as §2

Experiment [11] addresses T4, human FcRIIA protein (MednaBio, E1033). Put plainly: BLI. The source holds these as a separate data set.
Experiment [12] addresses T5, human FcRIIIA-F158 protein (MednaBio, …). The experiment can be described thus: BLI. This is another data set of the same source.
Experiment [13] concerns the target T6, human FcRI protein (MednaBio, E1031). Put plainly: BLI. This is another data set of the same source.
For experiment [14], the target named is T7, human FcRn protein (MednaBio, E1032). The experiment can be described thus: BLI. This is another data set of the same source.
The target of experiment [15] is T8, human FcRIIIA-V158 protein (MednaBio, …). Put plainly: BLI. This is another data set of the same source.
Experiment [16] has as its target T9, human FcRIIB/C protein (MednaBio, E1034). Put plainly: BLI. This is another data set of the same source.
For experiment [17], the target named is T10, human FcRIIIB protein (MednaBio, E1037). The experiment can be described thus: BLI. The source holds these as a separate data set.

Where two headings read alike, the source gives them in different places.

T7 sequence (P55899 24-297 limits assumed, form in doubt, chain 1 of 2): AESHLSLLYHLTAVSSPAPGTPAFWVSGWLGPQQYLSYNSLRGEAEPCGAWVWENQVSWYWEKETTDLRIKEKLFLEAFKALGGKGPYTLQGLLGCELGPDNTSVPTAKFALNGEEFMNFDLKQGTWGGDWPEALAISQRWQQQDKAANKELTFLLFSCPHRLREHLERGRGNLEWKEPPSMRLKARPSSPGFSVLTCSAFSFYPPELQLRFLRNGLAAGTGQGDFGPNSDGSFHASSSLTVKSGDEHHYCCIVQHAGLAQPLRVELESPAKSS
T7 sequence (P61769 21-119 limits assumed, form in doubt, chain 2 of 2): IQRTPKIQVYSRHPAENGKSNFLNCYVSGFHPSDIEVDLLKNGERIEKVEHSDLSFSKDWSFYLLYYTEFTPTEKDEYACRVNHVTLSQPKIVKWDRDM
T5 sequence (P08637 17-208 limits assumed): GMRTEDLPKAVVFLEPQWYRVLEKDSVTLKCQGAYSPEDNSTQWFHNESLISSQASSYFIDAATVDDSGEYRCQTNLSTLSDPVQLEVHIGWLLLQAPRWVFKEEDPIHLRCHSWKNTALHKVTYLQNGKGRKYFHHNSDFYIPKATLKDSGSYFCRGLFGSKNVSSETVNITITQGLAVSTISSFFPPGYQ
T8 sequence (P08637 17-208 F176V): as the sequence (P08637 17-208 limits assumed) above, with F160V counted along it

B1: anti-CD137 IgG4 with Fc variant G4m9 (antibody)
heavy: EVQLVQSGAEVKKPGESLRISCKGSGYSFSTYWISWVRQMPGKGLEWMGKIYPGDSYTNYSPSFQGQVTISADKSISTAYLQWSSLKASDTAMYYCARGYGIFDYWGQGTLVTVSSASTKGPSVFPLAPCSRSTSESTAALGCLVKDYFPEPVTVSWNSGALTSGVHTFPAVLQSSGLYSLSSVVTVPSSSLGTKTYTCNVDHKPSNTKVDKRVESKYGPPCPPCPAPEFLGGPSVFLFPPKPKDTLMISRTPEVTCVVVDVEQEDPEVQFNWYVDGVEVHNAKTKPREEQFNSTYRVVSVLTVLHQDWLNGKEYKCKVSNKGFPSSIEKTISKAKGQPREPQVYTLPPSQEEMTKNQVSLTCLVKGFYPSDIAVEWESNGQPENNYKTTPPVLDSDGSFFLYSRLTVDKSRWQEGNVFSCSVMHEALHNHYTQKSLSLSLGK
light: SYELTQPPSVSVSPGQTASITCSGDNIGDQYAHWYQQKPGQSPVLVIYQDKNRPSGIPERFSGSNSGNTATLTISGTQAMDEADYYCATYTGFGSLAVFGGGTKLTVLGQPKAAPSVTLFPPSSEELQANKATLVCLISDFYPGAVTVAWKADSSPVKAGVETTTPSKQSNNKYAASSYLSLTPEQWKSHRSYSCQVTHEGSTVEKTVAPTECS
notes: copies: 2 + 2
Consider B1, for which the binding result in experiment [1] is “binds”; in experiment [2] it was “binds”; in experiment [3] it was “no binding (tested: 10 ug/ml)”; in experiment [4], “no binding (tested: 300 nM)”; in experiment [5], “no binding (tested: 300 nM)”; in [8] it was “no binding (tested: 300 nM)”. Also, the binding result in experiment [10] is “no binding (tested: 300 nM)”. The results for the Kd in experiment [6], in [7] and in [9] were 17 nM, 75 nM and 140 nM, respectively. Also, the koff in experiment [6] came to 0.0074 s⁻¹; in [7], 0.017 s⁻¹; in [9], 0.013 s⁻¹. Besides, the figures for the kon in [6], in experiment [7] and in [9] were 440000 M⁻¹ s⁻¹, 230000 M⁻¹ s⁻¹ and 94000 M⁻¹ s⁻¹, respectively.

B2: anti-CD137 IgG4 with Fc variant G4m20 (antibody)
heavy: EVQLVQSGAEVKKPGESLRISCKGSGYSFSTYWISWVRQMPGKGLEWMGKIYPGDSYTNYSPSFQGQVTISADKSISTAYLQWSSLKASDTAMYYCARGYGIFDYWGQGTLVTVSSASTKGPSVFPLAPCSRSTSESTAALGCLVKDYFPEPVTVSWNSGALTSGVHTFPAVLQSSGLYSLSSVVTVPSSSLGTKTYTCNVDHKPSNTKVDKRVESKYGPPCPPCPAPEFLGSVFLFPPKPKDTLMISRTPEVTCVVVDVSQEDPEVQFNWYVDGVEVHNAKTKPREEQFNSTYRVVSVLTVLHQDWLNGKEYKCKVSNKGLPSSIEKTISKAKGQPREPQVYTLPPSQEEMTKNQVSLTCLVKGFYPSDIAVEWESNGQPENNYKTTPPVLDSDGSFFLYSRLTVDKSRWQEGNVFSCSVMHEALHNHYTQKSLSLSLGK
light: SYELTQPPSVSVSPGQTASITCSGDNIGDQYAHWYQQKPGQSPVLVIYQDKNRPSGIPERFSGSNSGNTATLTISGTQAMDEADYYCATYTGFGSLAVFGGGTKLTVLGQPKAAPSVTLFPPSSEELQANKATLVCLISDFYPGAVTVAWKADSSPVKAGVETTTPSKQSNNKYAASSYLSLTPEQWKSHRSYSCQVTHEGSTVEKTVAPTECS
notes: copies: 2 + 2
With B2, the binding result in experiment [11], in experiment [12], in experiment [13], in experiment [15], in experiment [16] and in experiment [17] was “no binding (tested: 300 nM)” in each case. The binding result in experiment [2] and in [3] was “no binding (tested: 10 ug/ml)” throughout. In experiment [14], the equilibrium dissociation constant (Kd) was found to be 19 nM. In [14], this molecule showed a koff of 0.0098 s⁻¹. The molecule also yielded an on-rate (kon) in experiment [14] of 510000 M⁻¹ s⁻¹.
